Source: patent US20160051704A1, “MOLECULAR IMAGING PROBES FOR LUNG CANCER INTRAOPERATIVE GUIDANCE” (H. Lee Moffitt Cancer Center and Research Institute, Inc., priority 2013, published 2016)

Columns and labels:
[1] = molecular target: delta opioid receptor (δOR) on HCT-116/δOR cells (UniProt P41143); experiment: TRF competitive binding against Eu-labeled DPLCE on HCT116/δOR cells
[2] = molecular target: delta opioid receptor (δOR) on HCT-116/δOR cells (UniProt P41143); experiment: LTRF competitive binding against Eu-DTPA-DPLCE (5 nM) on whole HCT-116/δOR cells; average of three experiments

Substance | Ki [1] [nM] | Ki [2] [nM]
Dmt-Tic-Lys(Mpr)-OH (ligand 6) (peptide) | 2.5 | 
Dmt-Tic-IR800 (Compound 1 of Scheme 4) (peptide) |  | 1.43
Dmt-Tic-Lys(Cy5)-OH (Cy5 labeled ligand 1) (peptide) | 3 | 
